This note sets out measurements from the nanobody polyreactivity screen of Harvey et al. (2022).

This data set can be described thus: yeast display, Sf9 membrane polyspecificity reagent, FACS + sequencing; frameworks hold sequencing errors. In a few lines:
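Synthetic nanobody libraries on Saccharomyces cerevisiae BJ5465 were galactose-induced for 36–48 hours, stained 1 hour at 4 °C with 10% biotinylated, detergent-solubilized Sf9 membrane reagent and enriched on streptavidin microbeads. FACS then separated cells into low and high (top ~1%) gates by anti-HA (expression) and streptavidin (reagent binding) fluorescence. Genes were colony-PCR amplified, MiSeq 2 × 250 sequenced and CDR-length filtered. A clone's polyreactivity label is that of its gate of origin.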
Turning to “QVQLVESGGGLVQAGGSLRLSCAASGSTLYRNAMGWYRQQPGKERELVAGITSSGTTTYYADSVKGRFTISRDNAKNTVYLQMNSLKPEDTAVYYCAARSLGFYYYDMDYWGQGTQVTVSS”, the “polyreactivity (PSR sort gate)” value is listed as “low polyreactivity”. Under “QVQLVESGGGLVQAGGSLRLSCAASGFIFEKYTMGWYRQAPGKERELVAAITWNGGSTYYADSVKGRFTISRDNAKNTVYLQMNSLKPEDTAVYYCAARVGWNKRRYDYWGQGTQVNVSS” stands “low polyreactivity”; under “QVQLVESGGGLVQAGGSLRLSCAASGSTFGRYDMGSYRQAPGKERELVAAISRSGGGTYYADSVKGRFTISRDNAKNTVYLQMNSLKPEDTAVYYCAADYRDYPDSAYYYWGQGTQVTVSS”, “low polyreactivity”; under “QVKLVESGGGLVQAGGSLRLSCAASGLIFGYNTMGWYRQAPGKERELVAAITRSGGSTYYADSVKGRFTISRDNAKNTVYLQMNSLKPEDTAVYYCAARHRSAYYHLDYWGQGTQVTVSS”, “high polyreactivity”. Under “QVQLVESGGGLVQAGGSLRLSCAASGRTFNWYAMGWYRQAPGKERELVAAISSRGGSTYADSVKGRFTISRDNAKNTVYLQMNSLKPEDTAVYYCAARHHGTKYDYWGLGTQVTVSS” stands “low polyreactivity”; under “QVQLVESGGGLVQAGGSLRLSCAASGSTFDAYAMGWYRPAPGTERELVAGISTSGGSTYYADSVKGRFTISRDNAKYTVVLQMNSMIPEVYAVYYCGAGVFRYVDRYGDMEYWGQGTQVTVSS”, “low polyreactivity”; under “QVQLVESGGGLVQAGGSLRLSCAASGRTSGRYAMGWYRQAPGKERELVAGITSSGGSTYYADSVKGRFTISRDNAKNSVYLQMNSLKPEDTAVYYCAKVWGAKGKTYRMYSWGQGTQVTVSS”, “high polyreactivity”. For the sequence “QVQLVESGGGIVQAGGSLRLTCAASGRIFAWYAMGWYRQAPWKERELVASITWGGGRTYYADSVKGRFTISRDNAKNTVYLQMNCLKPEVTAVYYCAAYRYKEEAYLGVAQERDYWGQGTLVTVSS”, the “polyreactivity (PSR sort gate)” value is recorded as “low polyreactivity”. As for “QVQLVESGGGLVQAGGSLRLSCAASGSIFGLYAMGWYRQAPGKERELVAAISGSGSRTYYADSVKGRFTISRDNAKNTVYLQMNSLKPEDTAVYYCAADRYWYGVHASIYYYWGQGTQVTVSS”, the entry is “high polyreactivity”; as for “QVQLVESGGGLVQAGGSLRLSCAASGSIFPQYAIGWYRQAPGKERELVAAITRSGGGTHYADSVKGRFTISRDNAKNTVYLQMNSLKPEDTAVYYCAKAGYRSEFEYWGQGTQVTVSS”, “low polyreactivity”; as for “QVQLVESGGGLVQAGGSLRLSCAASGRTFDYNTMGWYRQAPGKERELVAAISASGGSTYYADSVKGRFTISRDNAKNTVYLQMNSLKPEDTAVYYCAAARAAIVPGYYSWGQGTQVTVSS”, “low polyreactivity”. Under “QVQLVESGGGLVQAGGSLRLSCAASGRIFRRYAMGWYRQAPGKERELVAAITRSGGSTYYADSVKGRFTISRDNAKNTVYLQMNSLKPEDTAVYYCAARQVGRYYYLSRYYYWGQGTQVTVSS” stands “high polyreactivity”; under “QVQLVESAGGLVQAGGSLRLSCAASASTFTNYVMGWYRQAPGKERELVAAITKSGGSTYYADSVKGRYTISRDNAKNTVYLQMNRLKPEDTAVYYCAARRTTEFGYWGQGTQVTVSS”, “high polyreactivity”; under “QVQLVESGGGLVQAGGSLRLSCAASGRTFGRYTMGWYRQAPGKERELVADITSGWSTYADSVKGRFTISRDNAKNSVYLQMNSLKPEDTAVYYCNADRTYPEPAEYYYWGQGTQVTVSS”, “low polyreactivity”. As for “QVQLVESGGGLVQAGGSLRLSCAASGSISFSNAMGWYRQAPGKERELVASITSGGSTKYADSVKGRFTISRDNAKNTVYLQMNSLKPEDTAVYYCAADGYDYWGQGTQVTVSS”, the entry is “low polyreactivity”; as for “QVQLVESGGGLVQAGGSLRLSCAASGFIFRRYAMGWYRPAPGKVWELVAAITLRGGSTYYADSVKGRFTISRDNAKNTVYLQMNSLKPEATAVYYCAAGVRGQHDGYYWGQGTQETVSS”, “high polyreactivity”; as for “QVQLVESGGGLVQAGGSLRLSCGASGRIFRGYTMGWYRQAPGKERELVAAINRSGGNTYYADSVKGRFTISRDNAKNTVYLQLNSLKPEDTAVYYCAAGARGYGWRGDYWGQGTQVTVSS”, “low polyreactivity”.

On to “QVQLVESGGGLVQAGGSLRLTCAASGFIFKFYAMGWSRQAPGKEREVVAAITSSGGSTYYADSVKGRFTISRDNAKNTVYLQMNSLKPEDTAVYYCAAQFPGVYYYIYDYWGQGTQVTVSS”, for which the “polyreactivity (PSR sort gate)” value is reported as “high polyreactivity”. Under “QVQLVESGGGLVQAGGSLRLSCASSGYTFVYYAMGWYRQAPGKERELVAAINVSDGNTFYADSVKGRFTISRDNAKNTVYLQMNSLIPEDTAVYYCAADYYPYPPTSEYGYWGQGTQVTVSS” stands “low polyreactivity”; under “QVQLVESGGGLVQAGGSLRLSCAASGSIFEQNAMGWYRQAPGKERELVAAITWSGDSTYYADSVKGRFTISRDNAKNTVYLQMNSLKPEDTAVYYCAKEFGGTKRYGWYNYWGQGTQVTVSS”, “low polyreactivity”; under “QVQLVESGGGLVQAGGSLRLSCAASGYIITSNAMGWYRQAPGKERELVAAITYSDGSTYYADSVKGRFTISRDNAKNTVYLQMNSLIPEDTAVYYCAVDRDYNVAVLRDLDYWGQGTQVTVSS”, “low polyreactivity”. Turning to “QVQLVESGGGLVQAGGSLRLSCAASGSIFYDYAMGWYRQAPGKEREFVAAITSSGGSTYYADSVKGRFTISRDNAKNTVYLQMNSLKPEDTAVYYCAAEDSDAYFIYGYWGQGTQVTVSS”, the “polyreactivity (PSR sort gate)” value is “low polyreactivity”. “QVQLVESGGGLVQAGGSLRLSCAASGSILTRNAMGWYRQAPGKERELVAAISGGGGRTYYADSVKGRFTISRDNAKNTVYLQMNSLKPEDTAVYYCAADDGYSSNEYDYWGQGTQVTVSS”: the “polyreactivity (PSR sort gate)” value is reported as “low polyreactivity”. As for “QVQLVESGGGLVQAGGSLRLSCAASGSTFGWYAMGWYRKAPGKERELVAAISTTGGRTYYADSVKGRFTISRDNAKNTVYLQMNSLKPEDTAVYYCNARGRRYVYSYGYDYWGQGTQVTVSS”, the entry is “high polyreactivity”. With “QVHLVESGGGLVQAGGSLRLSCAASGFTFFYYAMGWYRPAPGKERELVAAINSGDNTNYADSVKGRFTISRDNAKNTVYLLMNSLIPEDTAVYYCAAQDYARGVVPGRRAMGYWGQGTQVSVSS”, the “polyreactivity (PSR sort gate)” value is given as “high polyreactivity”. As for “QVQLVESGGGLVQAGGSLRLSCAASGSIFKFYAMGWYRQAPGKEREMVAVITYIGGSTYYADSVKGRFTISRDNAKNTVYLQMNSLKPEDTAVYYCNKDGAFHWVGSDPVYLFEYWGQGTQVTVSS”, the entry is “low polyreactivity”.

As to “QVQIVETGGGLVQAGGSLGLSCAASGSNFGGNTMPCYRQAPGIERALVAAISRSGGSTYYADSVKGRFTISRDIAQNSVYVQMNSLKPEDTAVYYCNRKQAGQAQGYDYWGLGTQVTVSS”, the “polyreactivity (PSR sort gate)” value was “high polyreactivity”. Consider “QVQLVESGGGLVQAGGSLRLSCAASGRTFPFNVMGWYRQAPGKERELVAAISSGGSTNYADSVKGRFTISRDNAKNTVYLQMNSLKPEDTAVYYCAAYSVYGRYGRTFYYWGQGTQVTVSS”, for which the “polyreactivity (PSR sort gate)” value is given as “high polyreactivity”. Regarding “QVQLVESGGGLAQAGCSLRLSCAASGRLFRGNAMGGYRQAPGKERELVARITGNDGDTYYADSVKGRFTISRDNAKNTVYLQMNSLKPEDTAVYYCATDTSSYRRRYYYWGQGTQVTVSS”, the “polyreactivity (PSR sort gate)” value is listed as “low polyreactivity”. Regarding “QGQLVESGGGLVQAGGSLRLSCAASGSTFGYNVMGWYRQAPGKERELVAAINYSGVRTYYADSVKGRFTISRDNAKNTVYLQMNSLKPEDTAVYYCNATPTRAVGPYQYNYWGQGTQVTVSS”, the “polyreactivity (PSR sort gate)” value is “high polyreactivity”.
